One data set deals with SARS-CoV spike RBD (SARS-CoV, UniProt P59594 306-527). In words: […], room temperature; pH not stated. The settings on record: protein: commercial.
A further data set concerns the target SARS-CoV-2 spike RBD (SARS-CoV-2, UniProt P0DTC2 319-541).
Data set [1] deals with SARS-CoV nucleocapsid protein (SARS-CoV, UniProt P59595 1-422). In words: […], room temperature; pH not stated. The settings on record: protein: commercial; chain copies: 2.

We go through 2 molecules from paper PMC9282385, “Rapid self-test of unprocessed viruses of SARS-CoV-2 and its variants in saliva by portable wireless graphene biosensor”.

Chain of SARS-CoV nucleocapsid protein (P59595 whole entry): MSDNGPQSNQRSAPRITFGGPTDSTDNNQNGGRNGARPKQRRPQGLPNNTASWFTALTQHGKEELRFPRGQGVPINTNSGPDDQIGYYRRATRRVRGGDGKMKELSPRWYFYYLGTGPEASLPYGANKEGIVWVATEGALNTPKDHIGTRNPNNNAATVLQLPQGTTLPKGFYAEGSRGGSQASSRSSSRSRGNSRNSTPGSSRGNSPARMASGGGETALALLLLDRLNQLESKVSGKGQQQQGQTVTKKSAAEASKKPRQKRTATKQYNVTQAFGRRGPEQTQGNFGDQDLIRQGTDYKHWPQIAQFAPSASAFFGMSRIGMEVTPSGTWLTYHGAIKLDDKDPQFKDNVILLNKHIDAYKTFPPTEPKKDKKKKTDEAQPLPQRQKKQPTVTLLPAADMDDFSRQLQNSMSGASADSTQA

B1: Aptamer-S (structured_DNA)
DNA: CAGCACCGACCTTGTGCTTTGGGAGTGCTGGTCCAAGGGCGTTAATGGACA
Take B1: the binding result with SARS-CoV spike RBD and in the data set with SARS-CoV-2 spike RBD was “binds” each time.

B2: Aptamer-N (structured_DNA)
DNA: GCTGGATGTCGCTTACGACAATATTCCTTAGGGGCACCGCTACATTGACACATCCAGC
Turning to B2, the binding result in data set [1] is listed as “binds”.
